B1: LOC100129726 (parent)
chain: VHTGCHKKLGPEARRPRTRWGKN
B2: WEE1 (parent)
chain: FISRTSIPNAASEEGDEDDWASNK

Variants of: B1
Test: protein stability index of a GFP-peptide fusion (GPS, HEK-293T) (PSI 1-6); higher = more stable
Settings: c terminus: native
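Further: lentivirally expressed fusions sorted by FACS into six bins by GFP to DsRed ratio, PSI derived from sequencing read proportions per bin multiplied by bin number.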

Variant | protein stability index
VATGCHKKLGPEARRPRTRWGKN | 2.13
VHTGCHKKLGPEARRPRTRWGKT | 2.35
VHTGCHKKLGPEARRPRTRWGKF | 2.03
VHTPCHKKLGPEARRPRTRWGKN | 2.15
VHTSCHKKLGPEARRPRTRWGKN | 2.56
VHTGCHKKLGPEARRPSTRWGKN | 2.7
VHTGCHKKLGPEARRPFTRWGKN | 2.48
VHTGCHKKLGPEARRPETRWGKN | 2.26
VHTGCHKKLGPDARRPRTRWGKN | 2.56
VHTGCHKKLGPEARRPRTRSGKN | 4.58
VHTGCTKKLGPEARRPRTRWGKN | 1.76
VHTGCGKKLGPEARRPRTRWGKN | 1.64
VHTGCHKKLGPEARRPRTYWGKN | 1.92
VHTGCHKKLGPEARRPRTLWGKN | 3.09
VHTGCHKKLTPEARRPRTRWGKN | 2.48
VHTGCHKKLIPEARRPRTRWGKN | 1.33
VHTGCHKKLRPEARRPRTRWGKN | 2.37
VHTGCHKKLLPEARRPRTRWGKN | 1.22
VHTGCHKKLGPEARRPRTRWEKN | 4.54

Variant | protein stability index
VHTGCHKKLGPEARRPRTRWVKN | 2.78
VHIGCHKKLGPEARRPRTRWGKN | 2.94
VHTGCHKKLGPEARRPRCRWGKN | 1.63
VHTGSHKKLGPEARRPRTRWGKN | 1.51
VHTGIHKKLGPEARRPRTRWGKN | 1.63
VHTGKHKKLGPEARRPRTRWGKN | 2.27
VHTGPHKKLGPEARRPRTRWGKN | 2.09
VHTGLHKKLGPEARRPRTRWGKN | 2.41
VHTGCHKKLGPEARCPRTRWGKN | 1.41
VHTGCHKKLGPEARIPRTRWGKN | 1.27
VHTGCHKKHGPEARRPRTRWGKN | 1.62
VHTGCHKKLGPEARRCRTRWGKN | 1.24
VHTGCHKKLGPEARRQRTRWGKN | 1.03
VHTGCHKKLGPEARRGRTRWGKN | 3.15
VHTGCHKKLGPEARRPRTRWGPN | 3.43
VHTGCHKKLGPEAWRPRTRWGKN | 1.54
VHTGCHKKLGPEAGRPRTRWGKN | 4.21
VHTGCHKKLGPEAARPRTRWGKN | 3.44

Variants of: B2
Test: as above
Settings: c terminus: a fixed tail appended

Variant | protein stability index
IISRTSIPNAASEEGDEDDWASNK | 5.73
QISRTSIPNAASEEGDEDDWASNK | 5.63
DISRTSIPNAASEEGDEDDWASNK | 5.56
TISRTSIPNAASEEGDEDDWASNK | 5.32
HISRTSIPNAASEEGDEDDWASNK | 5.37
MISRTSIPNAASEEGDEDDWASNK | 5.24
GISRTSIPNAASEEGDEDDWASNK | 5.71
NISRTSIPNAASEEGDEDDWASNK | 5.29
CISRTSIPNAASEEGDEDDWASNK | 5.29
EISRTSIPNAASEEGDEDDWASNK | 5.46
RISRTSIPNAASEEGDEDDWASNK | 4.92
KISRTSIPNAASEEGDEDDWASNK | 5.42
PISRTSIPNAASEEGDEDDWASNK | 5.89
AISRTSIPNAASEEGDEDDWASNK | 5.37
WISRTSIPNAASEEGDEDDWASNK | 4.88
YISRTSIPNAASEEGDEDDWASNK | 4.39
LISRTSIPNAASEEGDEDDWASNK | 5.6
SISRTSIPNAASEEGDEDDWASNK | 5.84
VISRTSIPNAASEEGDEDDWASNK | 5.41
FMSRTSIPNAASEEGDEDDWASNK | 4.84
FVSRTSIPNAASEEGDEDDWASNK | 2.78
FLSRTSIPNAASEEGDEDDWASNK | 5.06
FKSRTSIPNAASEEGDEDDWASNK | 5.46
FNSRTSIPNAASEEGDEDDWASNK | 5.67
FGSRTSIPNAASEEGDEDDWASNK | 5.75
FWSRTSIPNAASEEGDEDDWASNK | 4.79

Variant | protein stability index
FRSRTSIPNAASEEGDEDDWASNK | 5.32
FFSRTSIPNAASEEGDEDDWASNK | 5.38
FTSRTSIPNAASEEGDEDDWASNK | 4.88
FYSRTSIPNAASEEGDEDDWASNK | 4.95
FPSRTSIPNAASEEGDEDDWASNK | 5.21
FCSRTSIPNAASEEGDEDDWASNK | 3.34
FHSRTSIPNAASEEGDEDDWASNK | 3.36
FQSRTSIPNAASEEGDEDDWASNK | 4.58
FDSRTSIPNAASEEGDEDDWASNK | 5.62
FASRTSIPNAASEEGDEDDWASNK | 4.66
FESRTSIPNAASEEGDEDDWASNK | 5.59
FSSRTSIPNAASEEGDEDDWASNK | 5.02
FISRTSNPNAASEEGDEDDWASNK | 4.35
FISRTSHPNAASEEGDEDDWASNK | 3.79
FISRTSQPNAASEEGDEDDWASNK | 4.37
FISRTSMPNAASEEGDEDDWASNK | 4.41
FISRTSAPNAASEEGDEDDWASNK | 4.21
FISRTSSPNAASEEGDEDDWASNK | 4.36
FISRTSDPNAASEEGDEDDWASNK | 4.84
FISRTSEPNAASEEGDEDDWASNK | 4.54
FISRTSYPNAASEEGDEDDWASNK | 2.72
FISRTSPPNAASEEGDEDDWASNK | 4.79
FISRTSRPNAASEEGDEDDWASNK | 3.58
FISRTSGPNAASEEGDEDDWASNK | 4.84
FISRTSLPNAASEEGDEDDWASNK | 4.11
FISRTSWPNAASEEGDEDDWASNK | 2.82

Variant | protein stability index
FISRTSTPNAASEEGDEDDWASNK | 4.53
FISRTSVPNAASEEGDEDDWASNK | 3.78
FISRTSFPNAASEEGDEDDWASNK | 2.79
FISRTSKPNAASEEGDEDDWASNK | 4.28
FISRTSCPNAASEEGDEDDWASNK | 3.83
FISRTSIRNAASEEGDEDDWASNK | 3.69
FISRTSIMNAASEEGDEDDWASNK | 3.51
FISRTSISNAASEEGDEDDWASNK | 4.05
FISRTSIKNAASEEGDEDDWASNK | 4.12
FISRTSIANAASEEGDEDDWASNK | 3.93
FISRTSIENAASEEGDEDDWASNK | 3.82
FISRTSIGNAASEEGDEDDWASNK | 2.17
FISRTSILNAASEEGDEDDWASNK | 2.92
FISRTSIVNAASEEGDEDDWASNK | 3.48
FISRTSIDNAASEEGDEDDWASNK | 4.68
FISRTSINNAASEEGDEDDWASNK | 4.31
FISRTSIHNAASEEGDEDDWASNK | 3.41
FISRTSIQNAASEEGDEDDWASNK | 3.96
FISRTSIINAASEEGDEDDWASNK | 3.82
FISRTSIWNAASEEGDEDDWASNK | 2.01
FISRTSIFNAASEEGDEDDWASNK | 3.19
FISRTSITNAASEEGDEDDWASNK | 4.1
FISRTSIYNAASEEGDEDDWASNK | 2.16
FISRTSICNAASEEGDEDDWASNK | 3.18
FISRYSIPNAASEEGDEDDWASNK | 2.19
FISRESIPNAASEEGDEDDWASNK | 4.85

Variant | protein stability index
FISRISIPNAASEEGDEDDWASNK | 3.5
FISRVSIPNAASEEGDEDDWASNK | 3.86
FISRLSIPNAASEEGDEDDWASNK | 3.6
FISRRSIPNAASEEGDEDDWASNK | 3.77
FISRMSIPNAASEEGDEDDWASNK | 3.3
FISRGSIPNAASEEGDEDDWASNK | 3.53
FISRKSIPNAASEEGDEDDWASNK | 4.01
FISRSSIPNAASEEGDEDDWASNK | 4.01
FISRNSIPNAASEEGDEDDWASNK | 4.28
FISRFSIPNAASEEGDEDDWASNK | 2.35
FISRPSIPNAASEEGDEDDWASNK | 4
FISRASIPNAASEEGDEDDWASNK | 4.19
FISRHSIPNAASEEGDEDDWASNK | 3.21
FISRDSIPNAASEEGDEDDWASNK | 4.2
FISRWSIPNAASEEGDEDDWASNK | 2.71
FISRCSIPNAASEEGDEDDWASNK | 3.58
FISRQSIPNAASEEGDEDDWASNK | 3.74
FISRTQIPNAASEEGDEDDWASNK | 3.89
FISRTWIPNAASEEGDEDDWASNK | 3.48
FISRTIIPNAASEEGDEDDWASNK | 3.61
FISRTAIPNAASEEGDEDDWASNK | 3.98
FISRTTIPNAASEEGDEDDWASNK | 3.73
FISRTEIPNAASEEGDEDDWASNK | 4.86
FISRTYIPNAASEEGDEDDWASNK | 1.98
FISRTNIPNAASEEGDEDDWASNK | 4.53
FISRTPIPNAASEEGDEDDWASNK | 3.79

Variant | protein stability index
FISRTLIPNAASEEGDEDDWASNK | 2.66
FISRTDIPNAASEEGDEDDWASNK | 4.39
FISRTKIPNAASEEGDEDDWASNK | 4.27
FISRTRIPNAASEEGDEDDWASNK | 3.22
FISRTCIPNAASEEGDEDDWASNK | 3.95
FISRTFIPNAASEEGDEDDWASNK | 1.83
FISRTGIPNAASEEGDEDDWASNK | 3.58
FISRTVIPNAASEEGDEDDWASNK | 3.69
FISRTHIPNAASEEGDEDDWASNK | 3.48
FISRTMIPNAASEEGDEDDWASNK | 3.15
FIFRTSIPNAASEEGDEDDWASNK | 3.57
FIGRTSIPNAASEEGDEDDWASNK | 3.17
FIVRTSIPNAASEEGDEDDWASNK | 3.6
FICRTSIPNAASEEGDEDDWASNK | 4.11
FIERTSIPNAASEEGDEDDWASNK | 4.78
FINRTSIPNAASEEGDEDDWASNK | 4.62
FIARTSIPNAASEEGDEDDWASNK | 4.44
FIWRTSIPNAASEEGDEDDWASNK | 2.85
FIPRTSIPNAASEEGDEDDWASNK | 3.67
FIDRTSIPNAASEEGDEDDWASNK | 4.67
FIMRTSIPNAASEEGDEDDWASNK | 4
FIYRTSIPNAASEEGDEDDWASNK | 3.37
FIQRTSIPNAASEEGDEDDWASNK | 4.09
FIHRTSIPNAASEEGDEDDWASNK | 3.59
FITRTSIPNAASEEGDEDDWASNK | 4.26
FIKRTSIPNAASEEGDEDDWASNK | 4.56

Variant | protein stability index
FIIRTSIPNAASEEGDEDDWASNK | 3.21
FIRRTSIPNAASEEGDEDDWASNK | 4.02
FILRTSIPNAASEEGDEDDWASNK | 3.95
FISGTSIPNAASEEGDEDDWASNK | 4.62
FISHTSIPNAASEEGDEDDWASNK | 4.15
FISLTSIPNAASEEGDEDDWASNK | 4.05
FISTTSIPNAASEEGDEDDWASNK | 4.94
FISATSIPNAASEEGDEDDWASNK | 3.49
FISDTSIPNAASEEGDEDDWASNK | 4.92
FISWTSIPNAASEEGDEDDWASNK | 3.67
FISSTSIPNAASEEGDEDDWASNK | 4.2
FISNTSIPNAASEEGDEDDWASNK | 4.64
FISCTSIPNAASEEGDEDDWASNK | 4.37
FISFTSIPNAASEEGDEDDWASNK | 3.15
FISQTSIPNAASEEGDEDDWASNK | 4.6
FISVTSIPNAASEEGDEDDWASNK | 4.39
FISITSIPNAASEEGDEDDWASNK | 3.85
FISETSIPNAASEEGDEDDWASNK | 5.35
FISMTSIPNAASEEGDEDDWASNK | 4.25
FISKTSIPNAASEEGDEDDWASNK | 3.86
FISPTSIPNAASEEGDEDDWASNK | 3.68
FISYTSIPNAASEEGDEDDWASNK | 4.1

Source: the supplement of paper PMC10567573
